How the values were obtained:
Assay in all cases: competition ELISA: soluble cytokine against J695 (100 ng/ml) binding to immobilized human IL-12
[1] = molecular target: T1, human IL-4 (human, UniProt P05112 25-153)
T1 sequence (looked up): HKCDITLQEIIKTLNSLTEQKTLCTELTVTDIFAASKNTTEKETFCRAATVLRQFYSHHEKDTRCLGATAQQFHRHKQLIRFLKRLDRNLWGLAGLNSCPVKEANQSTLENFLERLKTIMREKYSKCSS

[2] = molecular target: T2, human M-CSF (human, UniProt P09603 33-190, limits assumed)
T2 sequence (looked up): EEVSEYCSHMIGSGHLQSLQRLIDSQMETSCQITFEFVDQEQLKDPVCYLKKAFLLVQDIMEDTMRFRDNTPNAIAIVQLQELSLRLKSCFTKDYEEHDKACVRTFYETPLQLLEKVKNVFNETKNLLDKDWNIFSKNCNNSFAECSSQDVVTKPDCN

[3] = molecular target: human IGF-II (human, UniProt P01344 25-91)
[4] = molecular target: human IL-2 (human, UniProt P60568 21-153)
[5] = molecular target: T3, human IL-1α (human, UniProt P01583 113-271)
T3 sequence (looked up): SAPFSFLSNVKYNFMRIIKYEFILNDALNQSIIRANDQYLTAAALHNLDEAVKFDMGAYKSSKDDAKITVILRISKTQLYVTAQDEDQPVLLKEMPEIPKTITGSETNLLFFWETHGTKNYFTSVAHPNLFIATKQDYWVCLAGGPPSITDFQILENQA

[6] = molecular target: T4, human IL-11 (human, UniProt P20809 22-199)
T4 sequence (looked up): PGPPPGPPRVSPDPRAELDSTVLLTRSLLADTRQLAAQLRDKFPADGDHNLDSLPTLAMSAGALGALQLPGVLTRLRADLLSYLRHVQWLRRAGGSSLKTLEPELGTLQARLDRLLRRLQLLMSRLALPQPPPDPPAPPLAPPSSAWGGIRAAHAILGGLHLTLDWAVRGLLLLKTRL

[7] = molecular target: human TGF-β1 (human, UniProt P01137 279-390)
[8] = molecular target: human LIF (human, UniProt P15018 23-202)
[9] = molecular target: T5, human soluble IL-6 receptor (human, UniProt P08887 20-358)
T5 construct: Soluble form
T5 sequence (looked up): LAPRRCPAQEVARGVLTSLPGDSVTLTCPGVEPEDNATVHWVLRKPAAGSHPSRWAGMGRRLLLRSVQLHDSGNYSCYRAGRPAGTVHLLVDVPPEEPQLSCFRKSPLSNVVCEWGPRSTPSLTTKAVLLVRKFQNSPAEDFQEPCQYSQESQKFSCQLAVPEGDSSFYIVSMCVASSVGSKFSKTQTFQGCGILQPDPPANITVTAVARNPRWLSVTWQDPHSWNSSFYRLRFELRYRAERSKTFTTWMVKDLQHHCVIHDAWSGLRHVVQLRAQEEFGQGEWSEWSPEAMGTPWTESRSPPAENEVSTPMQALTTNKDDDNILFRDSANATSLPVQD

[10] = molecular target: human IL-17 (human, UniProt Q16552 20-155, limits assumed)
[11] = molecular target: human IGF-I (human, UniProt P05019 49-118)
[12] = molecular target: human IL-6 (human, UniProt P05231 30-212)
[13] = molecular target: human TNFα (human, UniProt P01375 77-233)
[14] = molecular target: T6, human IFN-gamma (human, UniProt P01579 24-166, limits assumed)
T6 sequence (looked up): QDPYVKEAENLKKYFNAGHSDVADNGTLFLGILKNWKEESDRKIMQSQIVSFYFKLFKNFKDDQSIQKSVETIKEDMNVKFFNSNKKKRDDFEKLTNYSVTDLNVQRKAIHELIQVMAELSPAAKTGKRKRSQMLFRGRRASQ

[15] = molecular target: human IL-1β (human, UniProt P01584 117-269)
[16] = molecular target: human IL-8 (human, UniProt P10145 28-99, limits assumed)
[17] = molecular target: T7, human lymphotoxin (human, UniProt P01374 35-205, limits assumed)
T7 sequence (looked up): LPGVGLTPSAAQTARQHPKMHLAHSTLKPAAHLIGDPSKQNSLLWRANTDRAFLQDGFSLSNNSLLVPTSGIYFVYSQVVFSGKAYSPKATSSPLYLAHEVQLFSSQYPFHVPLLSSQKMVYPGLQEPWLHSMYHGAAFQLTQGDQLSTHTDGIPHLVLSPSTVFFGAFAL

[18] = molecular target: human IL-10 (human, UniProt P22301 19-178)

Measured: binding result

B1: J695 (human anti-human IL-12 antibody, IgG1) (antibody, V domains shown)
VH: QVQLVESGGGVVQPGRSLRLSCAASGFTFSSYGMHWVRQAPGKGLEWVAFIRYDGSNKYYADSVKGRFTISRDNSKNTLYLQMNSLRAEDTAVYYCKTHGSHDNWGQGTMVTVSS
VL: QSVLTQPPSVSGAPGQRVTISCSGSRSNIGSNTVKWYQQLPGTAPKLLIYYNDQRPSGVPDRFSGSKSGTSASLAITGLQAEDEADYYCQSYDRYTHPALLFGTGTKVTVLG
notes: Tested as whole IgG1 with lambda light chain (detected with anti-human lambda); also called IgG1 J695; Y61-L94Y-L50Y IgG
no binding (tested: 2nM): all assays above

— patent EP2168984B1 (Abbott GmbH & Co. KG, dated 2012)
